The nanobody polyreactivity screen of Harvey et al. (2022)

Experiment: yeast display, Sf9 membrane polyspecificity reagent, FACS + sequencing; frameworks hold sequencing errors
Method in brief: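 Galactose induction of a Saccharomyces cerevisiae BJ5465 synthetic nanobody display library ran 36–48 hours. The cells were then stained for 1 hour at 4 °C with 10% biotinylated, detergent-solubilized Sf9 membrane reagent, pulled down on streptavidin microbeads and FACS-sorted into low and high (top ~1%) gates on expression and reagent-binding fluorescence. Labels for polyreactivity follow the gate of origin.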

QVQLVESGGGLVQAGGSLRLSCAASGRIFTTYAMGWYRQAPGKERELVARISSGGTTYYADSVQGRFTISRDNAKNTVYLQMNSLKPEDTAVYYCNVRAVTPTRSRPFRYDYWGQGTQVTVSS
polyreactivity (PSR sort gate): high polyreactivity

QVQLVESGGGIVQAGGSLRLRCAASGFTFSRNAMVWYRQAPGKERELVAAITWSGGRTYYADSVKGRFTISRDNAKNTVYLQMNSLKPEDTAVYYCAARKYHLRSAYDYWGQGTKVTVSS
polyreactivity (PSR sort gate): low polyreactivity

QVQLVESGGGLVQAGGSLRLSCAASGSIFYSYAMGWYRQAPGKERELVAAITSRTGNTYYADSVKGRFTISRDNAKNTVYLQMNSLKPEDTAVYYCAAKLVNALLHYRIWNHNNYWGQGTQVSVSS
polyreactivity (PSR sort gate): low polyreactivity

QVQLVESGGGLVQAGGSLRLSCASSGIIFHYYAKGWYRQAPGKERELVATISWDGGNTYYADSVKGRFTISRDNAKNRVYLQMNSLKPEDTAVYYCNVYDKAPAYAYWGQGTQVTVSS
polyreactivity (PSR sort gate): low polyreactivity

QDQLVESGGGLVQAGGSLRLRCAASGSILWYYAMGWYRQAPGKERELVASISYSGGSTYYADSVKGRFTISRDNAKNTVYLQMNSLKPEDTAVYYCNADTITYQGYDYGYWGQGTQVTVSS
polyreactivity (PSR sort gate): low polyreactivity

QVQLVESGGGLVQAGGSLRLSCAASGITFQYYAMGWYRQAPGKERELVAAITSSGVSTYYADSVKGRFTISRDNAKNTVYLQMNSLKPEDTAVYYCNTVVRGWSTSAYDYWGQGTQVTVSS
polyreactivity (PSR sort gate): low polyreactivity

QVQLVESGGGLVQAGGSLRLSCAASGTFWWYAMGWYRQAPGKERELVASINRGGSTYYADSVKGRFTISRDNAKNTVYLQMNSLKPEDSAVYYCNARWIGRLTPYRRATYYYWGQGTQVTVSS
polyreactivity (PSR sort gate): high polyreactivity

QGQLVESGGGLVQAGGSLRLSCAASGSIFVYNVMGWYRQEPGKATELVADISKTAGRTYSADSVKGRFTISRDNAKNTVYLQINSLKPEDTAVSYCAVGNKRDAYYQYSSYGYWGQGTQVTVSS
polyreactivity (PSR sort gate): low polyreactivity

QVQLVESGGGLVQAGGSLRLSCAASGRIFKYNAMGWYIQAPGKERELVAVITSGGSTYYADSVKGRFTISRDNEKNTVYLQMNSLKPDDTEVYYCAKKYYKVHKFDYWGQGTQVTVSS
polyreactivity (PSR sort gate): low polyreactivity

QVQLVESGVGLVQAGGSLRLRCAASGSILGGNAMGWYRQAPGKERELVAAITFSGGGTYYADSVKGRFTISRDNAKNTVYLQMNSRKPEDTAVYYCNAFAPDYYHVYPAEDYWGQGTQVTVSS
polyreactivity (PSR sort gate): low polyreactivity

QVQLVESGGGLVQAGGSLRLSCAASGSTFVTNAMGWYRQAPGKERELVAAITSGAGTYYADSVKGRFTISRDNAKNTVYLQMNSLKPEDTAVYYCAARRYYSRGRYRFGYWGQGTQVTVSS
polyreactivity (PSR sort gate): high polyreactivity

QVQLVESGGGLVQAGGSLRLSCAASGFIFYYYAMGWYRQAPGKERELVAAITSSGGSTYYADSVKGRFTISRDNAKNTVYLQMISLKPEDTAVYYCNALQYSRMDYWGQATQVTVSS
polyreactivity (PSR sort gate): high polyreactivity

QVQLVESGGVLVQAGGSLRFSCAASGIIFDQYAMGWYRQAPGKEREFVAVITRSGGSTYYADSVKGRFTISRDNAKKTVYLQMNSLKPEDTAVYYCAAPRLLGKRRRTNDYWGQGTQVTVSS
polyreactivity (PSR sort gate): high polyreactivity

QVQLVESGGGLVQAGGSLRLSCAASGSTLGRNAMGWYRQAPGKERELVASITRSGGSTYYADSVKGRFTISRDNAKNTVYLQMNSLKPEDTAVYYCAAEVQGQVGEFDYWGQGTQVTVSS
polyreactivity (PSR sort gate): low polyreactivity

QVQLVESGGGLVQAGGRLRISCAATGSTSVRNAMGWSRQGPGKESELVAGISRGGGITYYADSVKGRFTISRDNAKNTVYLQMNILKTEDTAVYYCAAVYYVDYPDGNYEYWGQGTQVTVSS
polyreactivity (PSR sort gate): high polyreactivity

QIKLEESGGGLVQAGGSLRISCAASGSTYWDKVMGWYRQAPGKEMELVAAIDSGGSTYYADSVKGRFTISRDNAKNTVYLLMNSLKPEDTEVYYCNSRVDTPSPYDYWGQGTQVTVSS
polyreactivity (PSR sort gate): low polyreactivity

QVQLVESGGGLVQAGGSLRLSCADSGYIFYYNAMGWYRQAPGKERDLVATITSGGSTYYADSLKGRFTISRDNAKNTVYLQMNSLKPEDTAVYYCAAPSQSIRYTYIRSYYWGQGTQVTVSS
polyreactivity (PSR sort gate): low polyreactivity

QGQLVESGGGLVQAGGSLRLSCAASGNTFGKNAMGWYRQAPGKERELVAAIRSSGGSTYYADSVKGRFTISRDNAKNTVYLQMNSLKPEDSAVYYCNADVIRQTDGYDYWGQGTLVTVSS
polyreactivity (PSR sort gate): high polyreactivity

QVQLVESGGGLVQAGGSLRLSCAASGLTFPPYAMGWYRQAPGKERELVATISFSTGNTYYADSVKGRFTISRDNAKNTVYLQLNSLKPEDTADYYCNKVFVLPYKFVAWFDSWGQGTQVTVSS
polyreactivity (PSR sort gate): low polyreactivity

QVQLVESGGGLVQAGGSLRLSCAASGLIFFWYTMGWYRQAPGKERELVAAISGSGTGTYYADSVKGRFTISRDNAKNTVYLQMNSLIPEDTAVYYCATDYVYRGYLMNYWGQGTQVTVSS
polyreactivity (PSR sort gate): high polyreactivity

QVQQQESRGGLVQAGGSLRLSCAASCTISQEDWMGWYRQAPGKEREFVAAIGLGSNTNYADSLKGRFTISRDNAKNTVYLQMNSLKPEDTAVYYCAVSVWQYSDHVYRGQGTQVTVSS
polyreactivity (PSR sort gate): low polyreactivity

QVQLVESGGGLVQAGGSLRLSCGASGRIFTRYAMGWYRQAPGKERELVAAISYGGGGTYYADSVKGRFTISRDNAKNTVYLQINSLKPEDTAVYYCATDDPLSQINEQCMDYWGQGTQVTVSS
polyreactivity (PSR sort gate): low polyreactivity

QVQLVESGGGLVQAGGSLRLSCAASGFTFDKNAMGWYRQAPGKERELVAAINIGSTYYADSVKGRFTISRDNAKNTVYLQMNSLKPEDTAVYYCAKEVPSGYWVNYYYWGQGTQVTVSS
polyreactivity (PSR sort gate): low polyreactivity

QVQLVESGGGLVQAGGSLRLSCAASGLTFWKYTMGWYRQAPGKERELVAAISISGTNTYYADSVKGRFTISRDNAKNTVYLQMNSLKPEDTAVYYCAAVRGYPPTNYYYWGQGTQVTVSS
polyreactivity (PSR sort gate): high polyreactivity

QVQLVESGGGLDQAGGSLRLSCAASGSIILVNAMGWYRQAPGKERELVAAISWRGGRTRYADSVKGRFTISRDNAKNTVYLQMNSLKPEDTAVYYCAAAGRPVGPRYDYWGQGTQVTVSS
polyreactivity (PSR sort gate): high polyreactivity

QVQLQVSGGDLVQAGGSLRLSCAASGTINGLTSMGWYRQAPGKEREFVAAITDGGYTNYADSVKGRFTISRDNAKNTVYLQMISLKPEDTAVYYCAVLFSDDAYYAYWGQGTQVTVSS
polyreactivity (PSR sort gate): low polyreactivity

QVNLVESGGGLVQAGCSLRITCADSGRTFKHNAMGWYRQAPGKERQLVAAISRRGGSTYFADSVKGRFTISRDNAKNTVYLQMNRLKPDDTAVYYCNAGYSTFLQYYGEVWKKGCYWGQGTQVTVSS
polyreactivity (PSR sort gate): high polyreactivity

QDQLVESGGGLVQAGGSLRLSCAASGSIFVENAMGWYRQAPGKEREFVAAITRSGGSTYYADSVKGRFTISRDNAKNPVYLQMNSMKPEDTAVYYCAARIWDEQPAAGYYWGQGTQVTVSS
polyreactivity (PSR sort gate): low polyreactivity

QVQLVESGGGLVQAGGSLRLSCAASGSTFRYSAMGWDRQAPGKEREFVAAISWSGSSTYYADSVKGRFTISRDNAKNTVYLQMNILKPEDTAGYYCAARYRYRSSSYDYWGQGTQVTVSS
polyreactivity (PSR sort gate): high polyreactivity

QVQLVESGGGLVQAGGSLRLSCAASGFTIYAYTMGWYRQAPGKERDLVASITSRGGTTYYADSVKGRFTISRDNEKNTVYLQMNSLKPEDTAVYYCNARGYFGWYAMDYCGQGTQVTVSS
polyreactivity (PSR sort gate): high polyreactivity

QVQLVESGGGLVQAGGSLRLSCAASGRTFRANAMGWSRQAPGKERELVAAITWDGGSTYYADSVKGRFTISRDNAKNTVYLQMNSLKPEDTAVYYCNTYPYLWGQGTQVTVSS
polyreactivity (PSR sort gate): low polyreactivity

QDQLVESGGGLLQAGGSLRLSCAASGRTFNSYAMGWYRQAPGKERVLVAAISSSGGSTYYADSVKGRFTISRDNAKNTVYLEMNSLKPEDTAVYYCAAGLGSTSALLYGYWGQGTLVTVSS
polyreactivity (PSR sort gate): high polyreactivity

QVQLVESGGGLVQAGGSLRLSCAASGITFFAYAMGWYRQAPGKERELVAAISTDGGSTYYADSVKGRFTISRDNAKNTVYLQMNSLKPEDTAVYYCAAKQRYVRTRGMDYWGQGTQVTVSS
polyreactivity (PSR sort gate): high polyreactivity

QVQHVESGGGLVQAGGSLRLSCAASGNIIPYNAKAWYRQAPGKERELVATISSGGSTYYADSVKGRFTISRDNAKNTVYLQMNSLKPEDTAVYYCAARGRYPYLYGYWGQGTQVTVSS
polyreactivity (PSR sort gate): high polyreactivity

QVQLVESGGGLLQAGGSLRLTCAASGSIFRYYSMGWYRQAPGKERELVASINSCGSTYYADSVKGRFTISRDNAKNTVYLQMKSLKPEDSAVYYCAAETSFYYRGYWKSYDYWGQGTQVTVSA
polyreactivity (PSR sort gate): high polyreactivity

QVQLVESGGGLVQAGGSLRFSCAASGSIFSVYAMGGYRQAPGKERELVASITSGGRTKYADSVKGRFTISRDNAKNTVYLQMNSLKPEDTAVYYCAAGTTWRYGGKYNYWGQGTQVTVSS
polyreactivity (PSR sort gate): low polyreactivity

QVQLVESGGGLVQAGGSLRLSCAASGSTFGGYAMGWYRQAPGKEREFVAAITKRGGRTYYADSVKGRFTISRDNAKNTVYLQMNSLKPEDTAVYYCATRGINYAEYDYWGQGTQVTVSS
polyreactivity (PSR sort gate): high polyreactivity

QVQLVESGGGLVQAGGSLRLSCAASGRIFWGNAMGWYRQAPGKERELVAAITRSGGSTYYADSVKGRFTISRDNAKNTVYLQMNSLKPEDTAVYYCAARRNYINFRYTLDYYYWGQGTQVTVSS
polyreactivity (PSR sort gate): high polyreactivity

QVQLVESGGGLVQAGGSLRLSCAASGRIFGANAMGWYRQAPGKERELVAAIDDGVSTNYADSVKGRFTISRDNAKNTVYLQMNSLKPEDTAVYYCAKRSFVGGRGRDSDYWGQGTQVTVSS
polyreactivity (PSR sort gate): low polyreactivity

QVQLVESGGGLVQAGGSLSLSCADSGSNFGDYAMGWYRQAPGKERELFAAISFSDGSTYYADSVKGRFTISRDNANNTVYLQMNSLKPEDTAVYYCAKDAYWGYRWYTYDYWGQGTQVTVSS
polyreactivity (PSR sort gate): low polyreactivity

QFQLVESGGGLVQAGGSLRLSCAASGRTFSRTAMGWYRQAPGKERELVAAITKGGGSTYYADSVKGRFTISRDNAKNTVYLQMNSLKPEDTAVYYCAAYKPSTRRYDYWGQGTQVTVSS
polyreactivity (PSR sort gate): high polyreactivity

QVQLVESGGGLVQAGGSLRLSCAASGFIFYRYAMGWSRQAPGKERELVAAISYRGGSTYYADSVKGRFTISRDIAKNTVYLQMNSLKAEDTAFYYCAAPGLYSRLDYWGQGTQVTVSS
polyreactivity (PSR sort gate): high polyreactivity

QVQLVESGGGLVQAGGSLRLSCAASGIIFRNNAMGWYRQAPGKERELVAAISRRGGSTSYADSVKGRFTISRDNAKNTVYLQMNSLKPEDTAVYYCNKAGPYYGYPHYLFYYWGQGTQVTVSS
polyreactivity (PSR sort gate): high polyreactivity
